Biological target: pooled human IgG

Protein | Enzyme Activity Endpoint Assay (purified): Fab'2 | Enzyme Activity Endpoint Assay (purified): Fc | Enzyme Activity Endpoint Assay (purified): IgG | Enzyme Activity Endpoint Assay (purified): scIgG | Enzyme Activity Endpoint Assay: Fab′2 | Enzyme Activity Endpoint Assay: Fc | Enzyme Activity Endpoint Assay: IgG | Enzyme Activity Endpoint Assay: scIgG
PRT-330 (protein) MTITSVWTKGVTPPTPEDFRENNEDVLHAPYVANQGWYDITKTFDGKDNLLCGAATAGNMLHWWFDQNKEEIERYLKKHPEKQKIIFGNQELFDVKAAIDTKDSQTNSKLFDYFRDKAFPGLSARQLGVFPDLVLDMFINGYYLNLGKTQSTDVNRPYQDKDKRGGIFDAVFTRGVQTTLLTARHDLKNKGLNEISDLIKQELTEGKALALSHTYANVRINHVINLWGADFDAEGNLIAIYVTDSDANASIGMKKYFVGRNANGKVAISAKKIEGDNIGAQVLGLFTLSTGQDQWQKLS | 493 ng/µL | 369 ng/µL | 352 ng/µL | 0 ng/µL | – | – | – | –
PRT-25 (protein) MANQEIRYSEVTPYHVTSVWTKGVTPPANFTQGEDVFHAPYVANQGWYDITKTFNGKDDLLCGAATAGNMLHWWFDQNKDQIERYLKEHPEKQKINFNGEQMFDVKEAIDTKDSQTDSKLFEYFKEKAFPYLSTKHLGVFPDHVIDMFINGYRLSLTNHGPTPVKEGSKDPRGGIFDAVFTRGDQSKLLTSRHDFKEKNLKEISDLIKQELTEGKALGLSHTYANVRINHVINLWGADFDSNGNLEAIYVTDSDSNASIGMKKYFVGVNSAGKVAISAKEIEEDNIGAQVLGLFTLSTGQDIWNQTN | – | – | – | – | 56 ng/µL | 123 ng/µL | 20 ng/µL | 0 ng/µL
PRT-26 (protein) MANQEIRYSEVTPYHVTSVWTKGVTPPANFTQGEDVFHAPYVANQGWYDITKTFNGKDDLLCGAATAGNMLHWWFDQNKDQIERYLKEHPEKQKINFNGEQMFDVKEAIDTKDSQTDSKLFEYFKEKAFPYLSTKHLGVFPDHVLDMFINGYRLSLTNHGPTPVKEGSKDPRGGIFDAVFTRGDQSKLLTSRHDFKEKTLKEISDLIKQELTEGKALGLSHTYANVRINHVINLWGADFDSEGNLKAIYVTDSDSNASIGMKKYFVGVNSAGKVAISAKEIKEDNIGAQVLGLFTLSTGQDIWNQTN | – | – | – | – | 40 ng/µL | 101 ng/µL | 11 ng/µL | 14 ng/µL
PRT-27 (protein) MANQEIRYSEVTPYHVTSVWTKGVTPPANFTQGEDVFHAPYVANQGWYDITKTFNGKDDLLCGAATAGNMLHWWFDQNKDQIKRYLEEHPEKQKINFNGEQMFDVKEAIDTKNHQTDSKLFEYFKEKAFPYLSTKHLGVFPDHVIDMFINGYRLSLTNHGPTPVKEGSKDPRGGIFDAVFTRGDQSKLLTSRHDFKEKNLKEISDLIKKELTEGKALGLSHTYANVRINHVINLWGADFDSNGNLEAIYVTDSDSNASIGMKKYFVGVNSAGKVAISAKEIKEDNIGAQVLGLFTLSTGQDSWNQTN | – | – | – | – | 44 ng/µL | 112 ng/µL | 14 ng/µL | 13 ng/µL
PRT-28 (protein) MANQEIRYSEVTPYHVTSVWTKGVTPPANFTQGEDVFHAPYVANQGWYDITKTFNGKDDLLCGAATAGNMLHWWFDQNKDQIKRYLEEHPEKQKINFNGEQMFDVKEAIDTKDHQLDSKLFEYFKEKAFPYLSTKHLGVFPDHVLDMFINGYRLSLTNHGPTPVKEGSKDPRGGIFDAVFTRGDQSKLLTSRHDFKEKTLKEISDLIKKELTEGKALGLSHTYANVRINHVINLWGADFDSNGNLKAIYVTDSDSNASIGMKKYFVGVNSAGKVAISAKEIKEDNIGAQVLGLFTLSTGQDSWNQTN | – | – | – | – | 16 ng/µL | 89 ng/µL | 14 ng/µL | 44 ng/µL
PRT-29 (protein) MANQEIRYSEVTPYHVTSVWTKGVTPPANFTQGEDVFHAPYVANQGWYDITKTFNGKDDLLCGAATAGNMLHWWFDQNKDQIKRYLEEHPEKQKINFNGEQMFDVKEAIDTKNHQLDSKLFEYFKEKAFPYLSTKHLGVFPDHVIDMFINGYRLSLTNHGPTPVKEGSKDPRGGIFDAVFTRGDQSKLLTSRHDFKEKNLKEISDLIKQELTEGKALGLSHTYANVRINHVINLWGADFDSNGNLEAIYVTDSDSNASIGMKKYFVGVNSAGKVAISAKEIEEDNIGAQVLGLFTLSTGQDSWNQTN | – | – | – | – | 19 ng/µL | 95 ng/µL | 27 ng/µL | 43 ng/µL
PRT-30 (protein) MANQEIRYSEVTPYHVTSVWTKGVTPPANFTQGEDVFHAPYVANQGWYDITKTFNGKDDLLCGAATAGNMLHWWFDQNKDQIKRYLEEHPEKQKINFNGEQMFDVKEAIDTKNHQLDSKLFEYFKEKAFPYLSTKHLGVFPDHVLDMFINGYRLSLTNHGPTPVKEGSKDPRGGIFDAVFTRGDQSKLLTSRHDFKEKTLKEISDLIKKELTEGKALGLSHTYANVRINHVINLWGADFDSEGNLKAIYVTDSDSNASIGMKKYFVGVNSAGKVAISAKEIKEDNIGAQVLGLFTLSTGQDSWNQTN | – | – | – | – | 3 ng/µL | 73 ng/µL | 21 ng/µL | 65 ng/µL
PRT-1 (protein) MANQEIRYSEVTPYHVTSVWTKGVTPPANFTQGEDVFHAPYVANQGWYDITKTFNGKDDLLCGAATAGNMLHWWFDQNKDQIKRYLEEHPEKQKINFNGEQMFDVKEAIDTKNHQLDSKLFEYFKEKAFPYLSTKHLGVFPDHVIDMFINGYRLSLTNHGPTPVKEGSKDPRGGIFDAVFTRGDQSKLLTSRHDFKEKNLKEISDLIKKELTEGKALGLSHTYANVRINHVINLWGADFDSNGNLKAIYVTDSDSNASIGMKKYFVGVNSAGKVAISAKEIKEDNIGAQVLGLFTLSTGQDSWNQTN | – | – | – | – | 44 ng/µL | 100 ng/µL | 23 ng/µL | 21 ng/µL
PRT-31 (protein) MANQEIRYSEVTPYHVTSVWTKGVTPPANFTQGEDVFHAPYVANQGWYDITKTFNGKDDLLCGAATAGNMLHWWFDQNKDQIERYLEEHPEKQKINFNGEQMFDVKEAIDTKNHQLDSKLFEYFKEKAFPYLSTKHLGVFPDHVIDMFINGYRLSLTNHGPTPVKEGSKDPRGGIFDAVFTRGDQSKLLTSRHDFKEKNLKEISDLIKKELTEGKALGLSHTYANVRINHVINLWGADFDSNGNLKAIYVTDSDSNASIGMKKYFVGVNSAGKVAISAKEIKEDNIGAQVLGLFTLSTGQDSWNQTN | – | – | – | – | 46 ng/µL | 126 ng/µL | 13 ng/µL | 15 ng/µL
PRT-32 (protein) MANQEIRYSEVTPYHVTSVWTKGVTPPANFTQGEDVFHAPYVANQGWYDITKTFNGKDDLLCGAATAGNMLHWWFDQNKDQIKRYLEEHPEKQKINFNGEQMFDVKEAIDTKNHQLDSKLFEYFKEKAFPYLSTKHLGVFPDHVIDMFINGYRLSLTNHGPTPVKEGSKDPRGGIFDAVFTRGDQSKLLTSRHDFKEKNLKEISDLIKKELTEGKALGLSHTYANVRINHVINLWGADFDSNGNLKAIYVTDSDSNASIGMKKYFVGVNSAGKVAISAKEIKEDNIGAQVLGLFTLSTGQDIWNQTN | – | – | – | – | 48 ng/µL | 124 ng/µL | 14 ng/µL | 17 ng/µL
PRT-33 (protein) MANQEIRYSEVTPYHVTSVWTKGVTPPANFTQGEDVFHAPYVANQGWYDITKTFNGKDDLLCGAATAGNMLHWWFDQNKDQIKRYLKEHPEKQKINFNGEQMFDVKEAIDTKNHQLDSKLFEYFKEKAFPYLSTKHLGVFPDHVIDMFINGYRLSLTNHGPTPVKEGSKDPRGGIFDAVFTRGDQSKLLTSRHDFKEKNLKEISDLIKKELTEGKALGLSHTYANVRINHVINLWGADFDSNGNLKAIYVTDSDSNASIGMKKYFVGVNSAGKVAISAKEIKEDNIGAQVLGLFTLSTGQDSWNQTN | – | – | – | – | 26 ng/µL | 93 ng/µL | 17 ng/µL | 44 ng/µL
PRT-34 (protein) MANQEIRYSEVTPYHVTSVWTKGVTPPANFTQGEDVFHAPYVANQGWYDITKTFNGKDDLLCGAATAGNMLHWWFDQNKDQIKRYLEEHPEKQKINFNGEQMFDVKEAIDTKNSQLDSKLFEYFKEKAFPYLSTKHLGVFPDHVIDMFINGYRLSLTNHGPTPVKEGSKDPRGGIFDAVFTRGDQSKLLTSRHDFKEKNLKEISDLIKKELTEGKALGLSHTYANVRINHVINLWGADFDSNGNLKAIYVTDSDSNASIGMKKYFVGVNSAGKVAISAKEIKEDNIGAQVLGLFTLSTGQDSWNQTN | – | – | – | – | 37 ng/µL | 95 ng/µL | 10 ng/µL | 14 ng/µL
PRT-35 (protein) MANQEIRYSEVTPYHVTSVWTKGVTPPANFTQGEDVFHAPYVANQGWYDITKTFNGKDDLLCGAATAGNMLHWWFDQNKDQIKRYLEEHPEKQKINFNGEQMFDVKEAIDTKDHQLDSKLFEYFKEKAFPYLSTKHLGVFPDHVIDMFINGYRLSLTNHGPTPVKEGSKDPRGGIFDAVFTRGDQSKLLTSRHDFKEKNLKEISDLIKKELTEGKALGLSHTYANVRINHVINLWGADFDSNGNLKAIYVTDSDSNASIGMKKYFVGVNSAGKVAISAKEIKEDNIGAQVLGLFTLSTGQDSWNQTN | – | – | – | – | 37 ng/µL | 104 ng/µL | 9 ng/µL | 14 ng/µL
PRT-36 (protein) MANQEIRYSEVTPYHVTSVWTKGVTPPANFTQGEDVFHAPYVANQGWYDITKTFNGKDDLLCGAATAGNMLHWWFDQNKDQIKRYLEEHPEKQKINFNGEQMFDVKEAIDTKNHQTDSKLFEYFKEKAFPYLSTKHLGVFPDHVIDMFINGYRLSLTNHGPTPVKEGSKDPRGGIFDAVFTRGDQSKLLTSRHDFKEKNLKEISDLIKKELTEGKALGLSHTYANVRINHVINLWGADFDSNGNLKAIYVTDSDSNASIGMKKYFVGVNSAGKVAISAKEIKEDNIGAQVLGLFTLSTGQDSWNQTN | – | – | – | – | 48 ng/µL | 123 ng/µL | 15 ng/µL | 16 ng/µL

Source: patent US20250027068
